Experimental data from article PMC6377682, “ASPP proteins discriminate between PP1 catalytic subunits through their SH3 domain and the PP1 C-tail” (Nature Communications, 2019).
Values belong to the binder of their own block, whether it stands above or below them.

B2: human iASPP^621-828 (domain or fragment, UniProt Q8WUF5 621-828, looked up)
chain: RRARLNPLVLLLDAALTGELEVVQQAVKEMNDPSQPNEEGITALHNAICGANYSIVDFLITAGANVNSPDSHGWTPLHCAASCNDTVICMALVQHGAAIFATTLSDGATAFEKCDPYREGYADCATYLADVEQSMGLMNSGAVYALWDYSAEFGDELSFREGESVTVLRRDGPEETDWWWAALHGQEGYVPRNYFGLFPRVKPQRSKV
notes: the protein preparation paragraph prints iASPP^608-828 in pGEX-6P2
B4: human ASPP2^920-1120 (domain or fragment, UniProt Q13625 920-1120, looked up)
chain: MRVKFNPLALLLDSSLEGEFDLVQRIIYEVDDPSLPNDEGITALHNAVCAGHTEIVKFLVQFGVNVNAADSDGWTPLHCAASCNNVQVCKFLVESGAAVFAMTYSDMQTAADKCEEMEEGYTQCSQFLYGVQEKMGIMNKGVIYALWDYEPQNDDELPMKEGDCMTIIHREDEDEIEWWWARLNDKEGYVPRNLLGLYPRI
notes: ASPP2, human, residues 920-1120 (RVxF motif, ankyrin repeats, SH3 domain); pGEX-6P2 construct; source: E. coli Rosetta (DE3) pLysS, purified (glutathione-Sepharose, 3C cleavage, SEC); for the crystal co-expressed with PP1α^7-330 in E. coli BL21 (DE3)
B8: ASPP2^D1091G/E1092P (domain or fragment, human, UniProt Q13625 920-1120, looked up)
chain: MRVKFNPLALLLDSSLEGEFDLVQRIIYEVDDPSLPNDEGITALHNAVCAGHTEIVKFLVQFGVNVNAADSDGWTPLHCAASCNNVQVCKFLVESGAAVFAMTYSDMQTAADKCEEMEEGYTQCSQFLYGVQEKMGIMNKGVIYALWDYEPQNDDELPMKEGDCMTIIHREGPDEIEWWWARLNDKEGYVPRNLLGLYPRI
notes: ASPP2, human, residues 920-1120 with n-Src loop mutations; also called double mutant mimicking the human iASPP n-Src loop

Assays:
Conditions in all cases: both partners purified
[1] = target: B4; assay: ITC; PP1 peptides (350–550 μM) titrated into ASPP2^920-1120 (40 μM), 20 °C; 25 mM Tris pH 8.0, 200 mM NaCl, 0.5 mM TCEP; single binding site model; ASPP2 mutants and iASPP in place of ASPP2 for Fig. 6e
[2] = target: T1, human PP1α^7-330 (human, UniProt P62136 7-330); assay: BLI; HIS tagged PP1α, PP1β or PP1γ1 (50 μg/ml) immobilised on Ni-NTA biosensors, ASPP in solution in kinetics buffer, 25 °C, 1000 rpm; global fit 1:1 model; apparent KD
T1 construct: PP1 catalytic subunit alpha, human, residues 7-330; His6 tag kept for ITC and BLI (captured on Ni-NTA sensors); also called full-length PP1α (as the text calls it); source: for the crystal co-expressed with ASPP2^920-1120 in E. coli BL21 (DE3), purified (Ni-NTA, glutathione-Sepharose, SEC)

[3] = target: T2, human PP1γ1^7-323 (human, UniProt P36873 7-323); assay: as above
T2 construct: source: bacterial culture with GroEL/GroES chaperone; purification for BLI not described

[4] = target: T1, human PP1α^7-330; assay: ITC; ASPP2 (25 μM) titrated into His6-tagged PP1 (3–4 μM), 25 °C; 20 mM Tris pH 8, 500 mM NaCl, 0.5 mM TCEP, 1 mM MnCl2
[5] = target: T3, human PP1β^6-327 (human, UniProt P62140 6-327); assay: BLI; HIS tagged PP1α, PP1β or PP1γ1 (50 μg/ml) immobilised on Ni-NTA biosensors, ASPP in solution in kinetics buffer, 25 °C, 1000 rpm; global fit 1:1 model; apparent KD
T3 construct: PP1 catalytic subunit beta, human, residues 6-327; source: bacterial culture with GroEL/GroES chaperone; purification for BLI not described

[6] = target: B8; assay: ITC; PP1 peptides (350–550 μM) titrated into ASPP2^920-1120 (40 μM), 20 °C; 25 mM Tris pH 8.0, 200 mM NaCl, 0.5 mM TCEP; single binding site model; ASPP2 mutants and iASPP in place of ASPP2 for Fig. 6e
[7] = target: B2; assay: as above

Kd [1]: 270 nM
B1: PP1α^317-330 peptide (peptide)
peptide: RPITPPRNSAKAKK
notes: PP1α, human, residues 324-330; source: synthetic peptide (LRI peptide synthesis core facility)

Binder: B2
Kd [2]: 2.6 nM | fold lower koff than ASPP2 on PP1α [2]: 110 fold | fold lower kon than ASPP2 on PP1α [2]: 7 fold | half-life of the complex [2]: 58 min | fold preference for PP1α and PP1β over PP1γ1 [3]: 2 fold

fold lower affinity than PP1α^301-330 (143 nM) [1]: 7 fold
B3: PP1β^297-327 C-tail peptide (peptide, UniProt P62140 297-327, looked up)
peptide: PSEKKAKYQYGGLNSGRPVTPPRTANPPKKR
notes: PP1 catalytic subunit beta, human, residues 297-327; source: synthetic peptide (LRI peptide synthesis core facility)

Binder: B4
Kd [4]: 6.1 nM | Kd [2]: 13.6 nM | half-life of the complex [2]: 0.517 min | fold lower affinity than for PP1α (13.6 nM) [5]: 13 fold | fold lower affinity than for PP1α (13.6 nM) [3]: 14 fold

binding result [2]: binds
B5: ASPP2^E1090K/D1093S (domain or fragment, human, UniProt Q13625 920-1120, looked up)
chain: MRVKFNPLALLLDSSLEGEFDLVQRIIYEVDDPSLPNDEGITALHNAVCAGHTEIVKFLVQFGVNVNAADSDGWTPLHCAASCNNVQVCKFLVESGAAVFAMTYSDMQTAADKCEEMEEGYTQCSQFLYGVQEKMGIMNKGVIYALWDYEPQNDDELPMKEGDCMTIIHRKDESEIEWWWARLNDKEGYVPRNLLGLYPRI
notes: ASPP2, human, residues 920-1120 with n-Src loop mutations; also called double ASPP2 mutant mimicking the ASPP1 n-Src loop

binding result [2]: binds
B6: ASPP2^D1093S (domain or fragment, human, UniProt Q13625 920-1120, looked up)
chain: MRVKFNPLALLLDSSLEGEFDLVQRIIYEVDDPSLPNDEGITALHNAVCAGHTEIVKFLVQFGVNVNAADSDGWTPLHCAASCNNVQVCKFLVESGAAVFAMTYSDMQTAADKCEEMEEGYTQCSQFLYGVQEKMGIMNKGVIYALWDYEPQNDDELPMKEGDCMTIIHREDESEIEWWWARLNDKEGYVPRNLLGLYPRI
notes: ASPP2, human, residues 920-1120 with an n-Src loop mutation; also called single ASPP2 mutant mimicking the ASPP1 n-Src loop

Kd [2]: 8200 nM
B7: ASPP2^D1091K/E1092V/E1094K (recombinant fragment) (domain or fragment, human, UniProt Q13625 920-1120, looked up)
chain: MRVKFNPLALLLDSSLEGEFDLVQRIIYEVDDPSLPNDEGITALHNAVCAGHTEIVKFLVQFGVNVNAADSDGWTPLHCAASCNNVQVCKFLVESGAAVFAMTYSDMQTAADKCEEMEEGYTQCSQFLYGVQEKMGIMNKGVIYALWDYEPQNDDELPMKEGDCMTIIHREKVDKIEWWWARLNDKEGYVPRNLLGLYPRI
notes: ASPP2, human, residues 920-1120 with n-Src loop mutations; also called ASPP2^KVK; triple mutant mimicking the C. elegans iASPP n-Src loop

Binder: B8
binding result [2]: binds

binding result [6]: binds | Kd [1]: 143 nM | Kd [7]: 395 nM
B9: PP1α^301-330 C-tail peptide (peptide, UniProt P62136 301-330, looked up)
peptide: KNKGKYGQFSGLNPGGRPITPPRNSAKAKK
notes: also called PP1α C-tail; source: synthetic peptide (LRI peptide synthesis core facility)

binding result [1]: binds
B10: PP1α^301-330 K329A peptide (peptide, UniProt P62136 301-330, looked up)
peptide: KNKGKYGQFSGLNPGGRPITPPRNSAKAAK
notes: source: synthetic peptide (LRI peptide synthesis core facility)

fold decrease in affinity against PP1α^301-330 [1]: 4 fold
B11: PP1α^301-330 K327A peptide (peptide, UniProt P62136 301-330, looked up)
peptide: KNKGKYGQFSGLNPGGRPITPPRNSAAAKK
notes: also called PP1α^K327 to alanine; source: synthetic peptide (LRI peptide synthesis core facility)

Kd [1]: 1900 nM | Kd [7]: 690 nM
B12: PP1α^301-330 3KA peptide (peptide, UniProt P62136 301-330, looked up)
peptide: KNKGKYGQFSGLNPGGRPITPPRNSAAAAA
notes: also called PP1α 3KA; source: synthetic peptide (LRI peptide synthesis core facility)

binding result [1]: binds
B13: PP1α^301-330 K330A peptide (peptide, UniProt P62136 301-330, looked up)
peptide: KNKGKYGQFSGLNPGGRPITPPRNSAKAKA
notes: as for B10

Kd [1]: 5650 nM
B14: PP1α^317-323 core PPII motif peptide (peptide)
peptide: RPITPPR
notes: as for B10

fold lower affinity than PP1α^301-330 (143 nM) [1]: 15 fold
B15: PP1γ2^297-324 C-tail peptide (peptide, UniProt P36873-2 297-324, looked up)
peptide: KPAEKKKPNATRPVTPPRVASGLNPSIQ
notes: PP1 catalytic subunit gamma, testis-specific isoform γ2, human, residues 297-324; source: synthetic peptide (LRI peptide synthesis core facility)

fold lower affinity than PP1α^301-330 (143 nM) [1]: 5 fold
B16: PP1γ1^298-323 C-tail peptide (peptide, UniProt P36873 298-323, looked up)
peptide: PAEKKKPNATRPVTPPRGMITKQAKK
notes: as for B10

binding result [2]: binds | binding result [5]: binds | binding result [3]: binds
B17: human ASPP1^882-1090 (domain or fragment, UniProt Q96KQ4 882-1090, looked up)
chain: LRVRFNPLALLLDASLEGEFDLVQRIIYEVEDPSKPNDEGITPLHNAVCAGHHHIVKFLLDFGVNVNAADSDGWTPLHCAASCNSVHLCKQLVESGAAIFASTISDIETAADKCEEMEEGYIQCSQFLYGVQEKLGVMNKGVAYALWDYEAQNSDELSFHEGDALTILRRKDESETEWWWARLGDREGYVPKNLLGLYPRIKPRQRTLA
notes: ASPP1, human, residues 882-1090; source: pGEX-6P2 construct; expression and purification described only for ASPP2

binding result [2]: binds
B18: ASPP1^K1052E/S1055D (domain or fragment, human, UniProt Q96KQ4 882-1090, looked up)
chain: LRVRFNPLALLLDASLEGEFDLVQRIIYEVEDPSKPNDEGITPLHNAVCAGHHHIVKFLLDFGVNVNAADSDGWTPLHCAASCNSVHLCKQLVESGAAIFASTISDIETAADKCEEMEEGYIQCSQFLYGVQEKLGVMNKGVAYALWDYEAQNSDELSFHEGDALTILRREDEDETEWWWARLGDREGYVPKNLLGLYPRIKPRQRTLA
notes: ASPP1, human, residues 882-1090 with n-Src loop residues 1 and 4 changed to the ASPP2 residues
